In publication PMC8611336:

How the values were obtained:
[1] = molecular target: SUVs of NE lipid composition; assay: microscale thermophoresis (MST); conditions: value read at the highest lipid concentration, about 1600 µM; n = 3; parent: est. 88; read off a plot
[2] = molecular target: SUVs of PM lipid composition; assay: microscale thermophoresis (MST); conditions: value read at the highest lipid concentration, about 1600 µM; n = 3; parent: est. 105; read off a plot

AαH peptide (Apq12 58-68, …) L58D; F61R; I62N; F68N
response [1]: 50%
response [2]: 35%
